# Test results reported in the supplement of paper PMC10724198.
# ± gives the standard deviation of the averaged measurements.
# Tested on: Saccharomyces cerevisiae
# Experiment: protein stability index of tFT-peptide fusion (C-terminal peptide) (PSI (0-1 scale)); higher = more stable (slower turnover)
# Conditions: genetic background: wild type; temperature: 30 C
# Description: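 Multiplexed protein stability (MPS) profiling in S. cerevisiae. Random 12-aa peptides (tFT-X12 library) are fused to the C-terminus of a sfGFP-mCherry tandem fluorescent timer, after mCherry and a GGGS linker. Cells are FACS-sorted into 8 mCherry/sfGFP bins and deep-sequenced. The protein stability index (PSI) is the read-weighted bin average, scaled from 0 (unstable) to 1 (stable). Only peptides with >10 reads are reported; cells were grown at 30 °C in SC-His with glucose.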
# 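Note: PSI is a weighted mean of sequencing reads over stability bins, variants kept only with over 10 reads, mCherry proximal and sfGFP distal, peptide attached via GGGS linker.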
row,Sequence,protein stability index
1,GNKKEKYNRTSS,0.683 ± 0.0078
2,PFLPSPHPSPSS,0.713 ± 0.022
3,FSFCRLPDSPSS,0.698 ± 0.026
4,LPSEAPSLLAPP,0.663 ± 0.084
5,AWGPGCVVRGRE,0.7151 ± 0.0012
6,PEDRCLDLLILC,0.5236 ± 0.004
7,VCFSCLFHESCL,0.726 ± 0.042
8,ERIKQGKKKRGT,0.778 ± 0.12
9,HLYARHCPPPNR,0.677 ± 0.052
10,SVLPSVAGIKSG,0.593 ± 0.046
11,VPSRTVTGTLPA,0.681 ± 0.026
12,AGIGWGDLASPG,0.681 ± 0.025
13,PGSSLAPAPPPP,0.683 ± 0.0088
14,RGPRWETVSSCM,0.682 ± 0.027
15,VREGKDREVSGF,0.715 ± 0.031
16,PADLCPPGSLSP,0.683 ± 0.01
17,PPPPPRPSPPHP,0.833 ± 0.022
18,GGVGGGVEPCFV,0.66 ± 0.028
19,LTGGNPLTQDGD,0.689 ± 0.019
20,PPNPNEPTQTPA,0.711 ± 0.013
21,RRRVWIQQRRKI,0.5481 ± 0.0053
22,PPHNTPLAPSQY,0.659 ± 0.0094
23,LPTYPPTLPVPS,0.638 ± 0.04
24,RMGWTRCRGGYG,0.5865 ± 0.0044
25,YYSTPLARSRSP,0.831 ± 0.21

row,Sequence,protein stability index
1,ILVSRQGRGMRS,0.643 ± 0.013
2,LVRPRFSPPPTP,0.6882 ± 0.0057
3,TVVTIGAHIGPR,0.78 ± 0.048
4,GLGAWRGAGRVG,0.649 ± 0.053
5,FRGTVYRGTRPR,0.622 ± 0.072
6,SRHLALPPPRSF,0.702 ± 0.045
7,ETEQTSIRRIKQ,0.728 ± 0.012
8,DCVSLFRVPRVA,0.612 ± 0.028
9,SRSGFWCYLLFL,0.553 ± 0.039
10,NKRSNIKVSDQR,0.691 ± 0.03
11,PVAGMSNTPLYG,0.685 ± 0.11
12,GLYDGSRLVKLE,0.736 ± 0.039
13,HCSGGFRCPPLV,0.6862 ± 0.0046
14,PHPTLATPPRRR,0.667 ± 0.096
15,CKMGNQNIRLYV,0.599 ± 0.033
16,KELENLHDNEGN,0.616 ± 0.019
17,TEGKPQVDPFDH,0.704 ± 0.076
18,GFGSEGQDMVGL,0.6658 ± 0.0027
19,KKETRRTNPEHK,0.765 ± 0.11
20,DICFGLLPPWPA,0.755 ± 0.057
21,GVSAPRFPGALA,0.69 ± 0.01
22,APPPAFLPPPPA,0.729 ± 0.048
23,QLYKLKNMKKKN,0.675 ± 0.0085
24,GMSRVSDRRWGS,0.681 ± 0.013
25,GPRDPSCLLPPL,0.653 ± 0.013

row,Sequence,protein stability index
1,GGSWGVGGVFVR,0.658 ± 0.03
2,GGSSLSSSSVIR,0.675 ± 0.036
3,HSTSLLPSGSWF,0.734 ± 0.016
4,KIIRKNILRNEY,0.658 ± 0.018
5,RYTQQTTATYHN,0.749 ± 0.079
6,PLFAYCLIFPML,0.533 ± 0.018
7,SEYPCSDRAEVA,0.65 ± 0.017
8,SFMVISSGSSVR,0.725 ± 0.023
9,LLTFSSCALPYR,0.676 ± 0.092
10,GVLRICFGGLVS,0.729 ± 0.031
11,IILRSSLLPLLY,0.548 ± 0.013
12,PAPPPPPPTTVL,0.691 ± 0.03
13,PPGPPIAPLFPP,0.657 ± 0.0071
14,GVVRSSRRYSFR,0.705 ± 0.034
15,GVGWWLGLGVIW,0.692 ± 0.029
16,AFAWERPCEIRF,0.6984 ± 0.0063
17,FPLSFLLDLLLV,0.509 ± 0.013
18,AGPPSPPLHPVG,0.696 ± 0.026
19,PPPPPRPPPARL,0.672 ± 0.06
20,EWVYSGDGMGVG,0.622 ± 0.03
21,RGVSVRLSLAYR,0.6216 ± 0.0048
22,VAVGIEGGGWGV,0.764 ± 0.032
23,KENYGIKTKDRK,0.696 ± 0.075
24,FRNESLVAGKSG,0.717 ± 0.076
25,WQMRNGTSRSSL,0.631 ± 0.012

row,Sequence,protein stability index
1,LSPVSPRPLLPV,0.773 ± 0.12
2,PLPCSPRLRLSF,0.646 ± 0.036
3,LASVYLLLRFSE,0.5266 ± 0.0012
4,GKTRLRAKLTYN,0.62 ± 0.08
5,PSAPPPPPPSPP,0.5979 ± 0.005
6,VGSPLSVCLSSR,0.702 ± 0.012
7,LSVMLEGLFGLL,0.662 ± 0.018
8,FCTDFDTLCREC,0.647 ± 0.021
9,IGFHGALPGICL,0.663 ± 0.054
10,RRWCVDLAMSFA,0.646 ± 0.016
11,PPLSSFSHHSFG,0.715 ± 0.069
12,KKTTKKKRKKNK,0.657 ± 0.018
13,PLVFFAGLFLVD,0.509 ± 0.041
14,DTYKDSHLNRRI,0.664 ± 0.022
15,ETKKGKKKKMTM,0.682 ± 0.0069
16,VVGGVGLGLWKV,0.659 ± 0.097
17,LPPGDPPPRGPP,0.597 ± 0.045
18,NRTRFLSLDTRP,0.719 ± 0.023
19,TSYRNNKAKNQS,0.756 ± 0.01
20,APSRPFPAHPPP,0.602 ± 0.044
21,VVAVGHWFDGGV,0.623 ± 0.045
22,CGRGCTRGVNLG,0.689 ± 0.069
23,VLLRLVGLCQYL,0.50067 ± 0.0004
24,SVPHRLLSVPPV,0.6816 ± 0.0014
25,FSNFVYFFFRSS,0.666 ± 0.12

row,Sequence,protein stability index
1,PSSPPPPPLPPC,0.649 ± 0.058
2,SKLTSRPLSKVP,0.718 ± 0.048
3,SRFISTLPGLLA,0.708 ± 0.035
4,VLSLHPRRATLL,0.615 ± 0.03
5,PTPGSSPLPATL,0.687 ± 0.0075
6,HEEPEVPEIQHV,0.743 ± 0.063
7,KQKKKKKEYKKK,0.676 ± 0.027
8,SNTKLIGLIVIG,0.539 ± 0.043
9,SGIILEKGGGGN,0.679 ± 0.026
10,GRILGEGWVCVV,0.663 ± 0.087
11,SHPPPTLLSYLP,0.746 ± 0.0079
12,GGGAGRSWFVGC,0.711 ± 0.042
13,WFLCWGWGCGGA,0.673 ± 0.08
14,GFGGWIVCLGGG,0.669 ± 0.0096
15,GVGRPSDGPFRA,0.666 ± 0.047
16,YRVGCCCFFALT,0.618 ± 0.016
17,ILPYTDTVCYRY,0.699 ± 0.047
18,VKSSIGWLKVGF,0.671 ± 0.15
19,QSRPRNMFRVIS,0.5469 ± 0.0045
20,IIPEPTKFSRQR,0.7059 ± 0.0026
21,VHFISPACSPPT,0.673 ± 0.058
22,VFLVESFSPPNA,0.701 ± 0.029
23,RGLNIPRLSCRY,0.748 ± 0.008
24,GVDGLLRVYVME,0.674 ± 0.029
25,ARLRSTPVVLPT,0.668 ± 0.024

row,Sequence,protein stability index
1,DRPPYTPHPPYP,0.7521 ± 0.0073
2,PLLPPPLFSLLR,0.681 ± 0.015
3,GRSHIQPCQDII,0.75 ± 0.078
4,PSPSAFLPCRLD,0.791 ± 0.094
5,LTVRVTSQPFDL,0.658 ± 0.015
6,LCYTDMIRGCVF,0.65 ± 0.021
7,PSPPLLTPLPPC,0.675 ± 0.022
8,SYRWAFPGVFSG,0.678 ± 0.031
9,MANYIVEGGEPY,0.723 ± 0.025
10,HGKNLALNEKCW,0.691 ± 0.034
11,FRFSELPTGFGQ,0.664 ± 0.058
12,DHVSVFSFVCFL,0.633 ± 0.015
13,HQSSHTRMARSL,0.723 ± 0.013
14,FPLLGRCCRAVQ,0.682 ± 0.043
15,YVVPLGIPPFKD,0.6591 ± 0.00099
16,FLGEKTCRSIIS,0.646 ± 0.083
17,GEAWWLRGGGER,0.757 ± 0.03
18,HPPPPPRSLPLP,0.692 ± 0.08
19,PYACQYVPCITT,0.5904 ± 0.004
20,VLRIIMQCVFVR,0.549 ± 0.0064
21,PPYPLLLRLPPP,0.618 ± 0.066
22,RFWDMGGYAGGL,0.733 ± 0.079
23,KKVKNQGLILRW,0.673 ± 0.035
24,DIWEFYNNLYSS,0.719 ± 0.013
25,GAPLALSVSFPG,0.648 ± 0.014

row,Sequence,protein stability index
1,PSTRVPATTHTL,0.6983 ± 0.00091
2,CVVVSCVCPFVV,0.5739 ± 0.0036
3,IRVAWTPRSYDL,0.664 ± 0.038
4,KNEIRLKEDIRC,0.718 ± 0.017
5,RPRVAVPHTSLP,0.714 ± 0.069
6,PPDGRPQEVWVP,0.72 ± 0.037
7,FCVFSFAAPGFP,0.6746 ± 0.00074
8,GITWSYNKSISH,0.722 ± 0.048
9,VGRGGGVWRLEG,0.699 ± 0.045
10,CSCSQYFHLPNV,0.687 ± 0.017
11,PPPPPPSAPPPS,0.669 ± 0.026
12,RYRDSKPDIVDC,0.723 ± 0.038
13,YWSTNGRCLMVL,0.581 ± 0.017
14,PVSPPRLPRPPP,0.615 ± 0.017
15,KTKKIMPEQIKK,0.616 ± 0.017
16,TNSGLGTGRRSA,0.768 ± 0.02
17,PPHPGALPPAAA,0.631 ± 0.035
18,GGGAGGAVRRAS,0.6932 ± 0.005
19,RNLPAHQARPDE,0.6751 ± 0.003
20,GGVSVPSERFRS,0.788 ± 0.044
21,AFPAQSLRLRCE,0.688 ± 0.049
22,CLLIRAQRNALW,0.64 ± 0.036
23,SIDPAEFSSTLP,0.7125 ± 0.0029
24,LVVVRTGPPRWY,0.669 ± 0.0073
25,KLQPVTTTQTIG,0.6713 ± 0.004

row,Sequence,protein stability index
1,MTRGRWAKKTAK,0.688 ± 0.038
2,PALPAPFLSSPH,0.6737 ± 0.00099
3,PPPAPPPCAPTP,0.713 ± 0.043
4,FGGSFEGRGRYY,0.737 ± 0.018
5,RGGGGGVECRVG,0.655 ± 0.075
6,EEAGETAGGRRE,0.648 ± 0.093
7,RWLWRLDNRIVI,0.62081 ± 4.7e-05
8,GGRVWAGGYLGA,0.707 ± 0.068
9,TFLVDLLSLFFL,0.65 ± 0.046
10,CSLVIRRRREVG,0.659 ± 0.044
11,VIPTYESNDRQS,0.652 ± 0.064
12,EEHVIQNIKCKN,0.738 ± 0.037
13,GWGGLFGCWVCG,0.656 ± 0.015
14,NRSKNKKIIREI,0.6341 ± 0.0056
15,LEKYIKNYINKR,0.615 ± 0.016
16,VPRTFQDLLPAP,0.707 ± 0.04
17,LPCPSPPPSPLS,0.675 ± 0.06
18,GRQLSTSRLRSS,0.674 ± 0.025
19,NLRFTTSCNGPL,0.649 ± 0.018
20,SSCGTITYLTPY,0.745 ± 0.015
21,PPQFIYYPLPLF,0.616 ± 0.063
